Test results from US20230218875A1, “PARTICLE-ATTACHED MICRONEEDLE AND METHOD OF MANUFACTURING THE SAME” (QuadMedicine, Inc., priority 2022, published 2023).

Test: Adhesion force of ovalbumin particles to PDMS 40 by centrifugation
Type: physicochemical
Experimental: Ovalbumin particles with an average diameter of 10 μm were attached to a plate with a diameter of 0.5 cm containing a PDMS 40 adhesive layer. Next, the plate was placed in a centrifuge tube. After centrifuging the tube at 27,000 g (Centrifuge, 1730R, LABOGENE, South Korea) for 10 min, the plate was weighed using a high-precision balance (Satorius SE2-F, Gottingen, Germany), and the amount of ovalbumin particles separated from the surface of PDMS 40 during centrifugation was calculated.

B1: ovalbumin particles: Ovalbumin particles with an average diameter of 10 μm attached to a plate containing a PDMS 40 adhesive layer (protein, UniProt P01012 2-386, looked up)
Ovalbumin: GSIGAASMEFCFDVFKELKVHHANENIFYCPIAIMSALAMVYLGAKDSTRTQINKVVRFDKLPGFGDSIEAQCGTSVNVHSSLRDILNQITKPNDVYSFSLASRLYAEERYPILPEYLQCVKELYRGGLEPINFQTAADQARELINSWVESQTNGIIRNVLQPSSVDSQTAMVLVNAIVFKGLWEKAFKDEDTQAMPFRVTEQESKPVQMMYQIGLFRVASMASEKMKILELPFASGTMSMLVLLPDEVSGLEQLESIINFEKLTEWTSSNVMEERKIKVYLPRMKMEEKYNLTSVLMAMGITDVFSSSANLSGISSAESLKISQAVHAAHAEINEAGREVVGSAEAGVDAASVSEEFRADHPFLFCIKHIATNAVLFFGRCVSP
modifications: particles
notes: Ovalbumin particles with an average diameter of 10 μm attached to a plate containing a PDMS 40 adhesive layer
Initial ovalbumin particles remaining on the surface of PDMS 40 (27,000 g for 10 min, pressure 0.2 N/cm^2, average diameter 10 μm): 96% | Vertical adhesion force between ovalbumin particles and PDMS 40 (from centrifugation at 27,000 g): more than 0.2 N/cm^2
